In US6953577B2, “Human methionine aminopeptidase type 3” (Pharmacia Corporation, priority 1999, dated 2005):

Tested on: CSCC[C@H](N)C(=O)N[C@@H](C)C(=O)N[C@@H](CO)C(=O)O
Experiment: purified protein, by the assay type
Settings: other: hydrolysis of methionine from MAS peptide substrate; pH 7.5
Description: Hydrogen peroxide, produced by the L-amino acid oxidase reaction, was measured by monitoring the formation of resorufin from Amplex Red in a reaction catalyzed by of horseradish peroxidase. […] The reaction was performed in a 96-well plate format at ambient temperature using the following assay buffer: 20 mM HEPES-Na pH 7.5, 100 mM NaCl, 0.1 mM CoCl2 containing 100 μM Amplex Red, 0.15 U/ml L-amino acid oxidase, 0.5 U/ml horseradish peroxidase.
The IC50 values were determined under conditions in which enzyme concentration and reaction time were linear.

Substance: recombinant human MetAP-1 (Homo sapiens)
- Km: 8.5 mM
- kcat: 0.75 s⁻¹
